Results published in US20210355235A1 (YALE UNIVERSITY, published 2021).
Changes are numbered by the printed parent chain.

B1: anti-renalase monoclonal antibody 1D-28-4 (antibody, V domains shown)
VH: QSVEESGGRLVTPGTPLTLTCTVSGFSLSSFAVGWVRQAPGKGLEYIGIISSVGITRYASWAAGRFTISKTSTTVDLKITSPTTEDTATYFCARYGYSGDVNRLDLWGQGTLVTVSS
VL: AQVLTQTASPVSAAVGGTVTINCQASQSVYDNNNLAWYQQKPGQPPKQLIYGASTLASGVSSRFKGSGSGTQFTLTISGVQCDDAATYYCLGEFSCSSADCFAFGGGTEVVVKG
notes: Rabbit monoclonal IgG raised against peptide 1D (RP-220); also called m28-RNLS; Bio-1D 28-4
B2: anti-renalase monoclonal antibody 1F-26-1 (antibody, V domains shown)
VH: QSVKESEGGLFKPTDTLTLTCTVSGFSLSSYGVTWVRQAPGNGLEWIGLIGDRGTTFYASWAKSRSTITRNTNLNTVTLKMTRLTAADTATYFCARGSGYGARIWGPGTLVTVSS
VL: AQVLTQTPSPVSAAVGGTVTINCQSSQSVYKNNYLAWYQQKPGQPPKLLIYETSKLASGVPPRFSGSGSGTQFTLTISSVQCDDAATYYCQGGYSGVDFMAFGGGTEVVVKG
notes: Rabbit monoclonal IgG raised against peptide 1F; Biotinylated in the Biacore study; also called Bio-1F 26-1
B3: anti-renalase monoclonal antibody 1F-42-7 (antibody, V domains shown)
VH: B2 VH with S29T, S30T, F57Y, A62V, K63N, S64G, S114A
VL: B2 VL with V11M, V15L, S28T, K31N, A36S, A57S
notes: Rabbit monoclonal IgG raised against peptide 1F; Biotinylated in the Biacore study; also called Bio-1F 42-7
B4: anti-renalase monoclonal antibody 1D-37-10 (antibody, V domains shown)
VH: QSVEESGGRLVTPGGSLTLTCTVSGFSLSDYAIIWVRQAPGKGLEYIAIIGSSGDTFYATWAKGRFTISKTSTTVDLKMTSLTAADTATYFCAPRYAGTTDYHDAFDPWGPGTLVTVSS
VL: EVVMTQTPASMEAPMGGTVTIKCQASQNIYNYLSWYQQKPGQPPKLLVYKASTLTSGVPSRFKGSGSGTQFTLTISDLECADAATYYCQINYSIYNHYNIIFGGGTEVVVKG
notes: Rabbit monoclonal IgG raised against peptide 1D (RP-220); Biotinylated in the Biacore study; also called m37-RNLS; Bio-1D 37-10

Biological target: T1, human renalase-1 (Homo sapiens, UniProt Q5VYX0 18-342, limits assumed)
T1 construct: Whole entry named for renalase-1 (Glu at position 37); also called R1; HuRenalase-1
T1 sequence (Q5VYX0 18-342 limits assumed): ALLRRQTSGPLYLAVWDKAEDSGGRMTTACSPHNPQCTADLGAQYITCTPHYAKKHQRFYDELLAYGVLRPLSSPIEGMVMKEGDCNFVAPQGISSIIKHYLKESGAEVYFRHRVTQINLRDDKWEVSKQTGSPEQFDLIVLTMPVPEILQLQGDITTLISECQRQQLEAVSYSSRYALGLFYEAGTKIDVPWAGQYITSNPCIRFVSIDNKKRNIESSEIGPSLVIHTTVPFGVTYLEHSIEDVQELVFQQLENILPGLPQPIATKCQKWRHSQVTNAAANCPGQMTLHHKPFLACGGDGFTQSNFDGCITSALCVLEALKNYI
Test: SPR, Biacore T100; biotinylated antibody captured on streptavidin chip, renalase-1 in solution
Procedure: Binding studies were performed using a Biacore T100. Binding studies were performed at 25° C. using 25 mM Tris pH 8, 150 mM NaCl, 1 mM EDTA, 10% glycerol, 0.005% Tween-20 and 0.1 mg/mL BSA as the running buffer. The biotinylated antibodies were captured on individual streptavidin sensor chip flow cells as shown below. Because the study took two sensor chips, the analysis of two of the mAbs on the second sensor chip was repeated to gather more data. Renalase-1 was tested at 50 nM as the highest concentration in a three-fold dilution series. Each of 5 concentrations was tested in duplicate. Bound complexes were regenerated with a short pulse of 1/1000 phosphoric acid.

Binder | Kd [nM] | koff [s⁻¹] | kon [M⁻¹ s⁻¹]
B1 | 0.316 | 2.04e-05 | 64700
B2 | 2.25 | 0.000102 | 45300
B3 | 2.41 | 9.47e-05 | 39300
B4 | 2.67 | 4.67e-05 | 17500
